Laboratory results taken from patent US20120282619.

Tests used:
[1] = target: T1, GTPase regulator associated with FAK (GRAF), Q9UNA1
T1 chain: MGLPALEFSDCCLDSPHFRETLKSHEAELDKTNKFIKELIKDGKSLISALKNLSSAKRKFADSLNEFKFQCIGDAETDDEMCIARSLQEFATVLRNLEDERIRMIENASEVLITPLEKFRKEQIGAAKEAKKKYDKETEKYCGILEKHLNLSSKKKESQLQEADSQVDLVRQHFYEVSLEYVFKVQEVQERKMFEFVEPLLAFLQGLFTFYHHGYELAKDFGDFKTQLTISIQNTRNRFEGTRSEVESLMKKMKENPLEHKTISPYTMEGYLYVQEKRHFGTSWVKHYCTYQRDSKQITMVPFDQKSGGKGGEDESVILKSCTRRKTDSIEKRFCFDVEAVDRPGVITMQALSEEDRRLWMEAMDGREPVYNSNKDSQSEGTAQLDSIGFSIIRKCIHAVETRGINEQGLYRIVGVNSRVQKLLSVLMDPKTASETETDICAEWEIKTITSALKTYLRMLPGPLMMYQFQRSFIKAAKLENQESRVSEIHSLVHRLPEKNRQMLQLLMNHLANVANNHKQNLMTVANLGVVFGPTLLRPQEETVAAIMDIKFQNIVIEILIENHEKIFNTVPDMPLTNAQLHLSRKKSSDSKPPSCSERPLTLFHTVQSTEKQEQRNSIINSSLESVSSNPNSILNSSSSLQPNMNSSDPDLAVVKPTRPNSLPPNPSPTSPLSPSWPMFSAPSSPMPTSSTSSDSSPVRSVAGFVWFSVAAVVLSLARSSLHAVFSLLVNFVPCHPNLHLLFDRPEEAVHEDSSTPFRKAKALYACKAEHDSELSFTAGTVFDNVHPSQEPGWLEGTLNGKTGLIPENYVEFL

p190RhoGAP, Q9NRY4 = target: T2, p190RhoGAP, Q9NRY4
T2 chain: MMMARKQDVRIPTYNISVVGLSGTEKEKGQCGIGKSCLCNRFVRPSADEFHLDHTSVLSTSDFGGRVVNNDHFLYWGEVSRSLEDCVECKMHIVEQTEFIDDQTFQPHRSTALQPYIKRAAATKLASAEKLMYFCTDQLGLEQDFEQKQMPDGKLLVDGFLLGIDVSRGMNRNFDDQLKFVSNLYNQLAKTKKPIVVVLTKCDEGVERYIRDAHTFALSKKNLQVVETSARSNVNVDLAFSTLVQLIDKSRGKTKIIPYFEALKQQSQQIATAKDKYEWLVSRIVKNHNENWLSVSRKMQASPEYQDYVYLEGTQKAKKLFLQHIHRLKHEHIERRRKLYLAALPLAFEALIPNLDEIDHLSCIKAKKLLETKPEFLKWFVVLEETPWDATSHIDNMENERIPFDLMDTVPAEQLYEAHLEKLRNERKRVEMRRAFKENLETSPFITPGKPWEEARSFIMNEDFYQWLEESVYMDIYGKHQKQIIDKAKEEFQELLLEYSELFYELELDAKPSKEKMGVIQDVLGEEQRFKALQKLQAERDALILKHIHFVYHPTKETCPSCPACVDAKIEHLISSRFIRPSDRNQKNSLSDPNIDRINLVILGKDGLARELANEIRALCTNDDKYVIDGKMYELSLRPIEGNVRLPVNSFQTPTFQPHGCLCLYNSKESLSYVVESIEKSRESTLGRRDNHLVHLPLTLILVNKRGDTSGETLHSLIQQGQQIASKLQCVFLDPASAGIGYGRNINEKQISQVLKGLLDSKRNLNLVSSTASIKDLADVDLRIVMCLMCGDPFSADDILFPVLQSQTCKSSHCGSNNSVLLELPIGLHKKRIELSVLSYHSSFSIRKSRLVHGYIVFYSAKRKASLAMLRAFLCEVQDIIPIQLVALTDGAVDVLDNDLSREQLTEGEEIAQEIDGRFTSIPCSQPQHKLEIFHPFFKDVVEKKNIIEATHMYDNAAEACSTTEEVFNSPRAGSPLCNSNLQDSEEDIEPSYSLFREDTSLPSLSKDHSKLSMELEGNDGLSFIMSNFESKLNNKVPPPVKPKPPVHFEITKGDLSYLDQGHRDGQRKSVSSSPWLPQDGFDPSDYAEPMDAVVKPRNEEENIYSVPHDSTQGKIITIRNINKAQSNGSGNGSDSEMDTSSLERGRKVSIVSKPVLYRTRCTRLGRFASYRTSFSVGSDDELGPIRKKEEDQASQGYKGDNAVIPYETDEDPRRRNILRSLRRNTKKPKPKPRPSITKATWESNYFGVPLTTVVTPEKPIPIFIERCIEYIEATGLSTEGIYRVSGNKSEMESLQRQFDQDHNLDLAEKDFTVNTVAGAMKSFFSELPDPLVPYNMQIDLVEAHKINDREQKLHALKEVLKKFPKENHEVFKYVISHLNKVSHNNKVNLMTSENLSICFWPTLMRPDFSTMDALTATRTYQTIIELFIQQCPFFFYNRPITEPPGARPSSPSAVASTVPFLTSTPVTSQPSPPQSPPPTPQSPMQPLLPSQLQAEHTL

B1: focal adhesion kinase (FAK) (protein)
chain: AAAYLDPNLNHTPNSSTKTHLGTGMERSPGAMERVLKVFHYFESNSEPTTWASIIRHGDATDVRGIIQKIVDSHKVKHVACYGFRLSHLRSEEVHWLHVDMGVSSVREKYELAHPPEEWKYELRIRYLPKGFLNQFTEDKPTLNFFYQQVKSDYMLEIADQVDQEIALKLGCLEIRRSYWEMRGNALEKKSNYEVLEKDVGLKRFFPKSLLDSVKAKTLRKLIQQTFRQFANLNREESILKFFEILSPVYRFDKECFKCALGSSWIISVELAIGPEEGISYLTDKGCNPTHLADFTQVQTIQYSNSEDKDRKGMLQLKIAGAPEPLTVTAPSLTIAENMADLIDGYCRLVNGTSQSFIIRPQKEGERALPSIPKLANSEKQGMRTHAVSVSETDDYAEIIDEEDTYTMPSTRDYEIQRERIELGRCIGEGQFGDVHQGIYMSPENPALAVAIKTCKNCTSDSVREKFLQEALTMRQFDHPHIVKLIGVITENPVWIIMELCTLGELRSFLQVRKYSLDLASLILYAYQLSTALAYLESKRFVHRDIAARNVLVSSNDCVKLGDFGLSRYMEDSTYYKASKGKLPIKWMAPESINFRRFTSASDVWMFGVCMWEILMHGVKPFQGVKNNDVIGRIENGERLPMPPNCPPTLYSLMTKCWAYDPSRRPRFTELKAQLSTILEEEKAQQEERMRMESRRQATVSWDSGGSDEAPPKPSRPGYPSPRSSEGFYPSPQHMVQTNHYQVSGYPGSHGITAMAGSIYPGQASLLDQTDSWNHRPQEIAMWQPNVEDSTVLDLRGIGQVLPTHLMEERLIRQQQEMEEDQRWLEKEERFLKPDVRLSRGSIDREDGSLQGPIGNQHIYQPVGKPDPAAPPKKPPRPGAPGHLGSLASLSSPADSYNEGVKLQPQEISPPPTANLDRSNDKVYENVTGLVKAVIEMSSKIQPAPPEEYVPMVKEVGLALRTLLATVDETIPLLPASTHREIEMAQKLLNSDLGELINKMKLAQQYVMTSLQQEYKKQMLTAAHALAVDAKNLLDVIDQARLKMLGQTRPH
For B1, the RhoA activity [1] was “TM4SF5 expressed in SNU449 cells inhibited RhoA activity, leading to the elongation of cells” and the RhoA activity (p190RhoGAP, Q9NRY4) was “TM4SF5 expressed in SNU449 cells inhibited RhoA activity, leading to the elongation of cells”.
